According to US20230212319A1, “NOVEL ANTIGEN BINDING DOMAINS AND SYNTHETIC ANTIGEN RECEPTORS INCORPORATING THE SAME” (University of Southern California, priority 2020, published 2023):

B1: 22003 (protein)
chain: MALPVTALLLPLALLLHAARPLEGKPIPNPLLGLDSTGSGEDLKNVFPPEVAVFEPSKAEIAHTQKATLVCLATGFYPDHVELSWWVNGKEVHSGVCTDPQPLKEQPALNDSRYCLSSRLRVSATFWQNPRNHFRCQVQFYGLSENDEWTQDRAKPVTQIVSAEAWGRADCGITSASYHQGVLSATILYEILLGKATLYAVLVSALVLMAMVKRKDSRGRAKRSGSGATNFSLLKQAGDVEENPGPTSTMALPVTALLLPLALLLHAARPQLQLQESGPGLVKPSETLSLTCTVSGDSISSGDYYWGWIRQPPGKGLEWIGHIYYSGVTYYNPSLKSRVTISVDTSRNQFSLKLSSVTAADTAVYYCTREDSSNWRSRGQGTLVTVSSLESGGGGSFEEVQLLESGGGLVQPGGSLRLSCAASGFTFSSYAMSWVRQAPGKGLEWVSSISGSGDYIYYADSVKGRFTISRDISKNTLYLQMNSLRAEDTAVYYCAKEGTGANSSLADYRGQGTLVTVSSTREQKLISEEDGSGIQNPDPAVYQLRDSKSSDKSVCLFTDFDSQTNVSQSKDSDVYITDKCVLDMRSMDFKSNSAVAWSNKSDFACANAFNNSIIPEDTFFPSSDVPCDVKLVEKSFETDTNLNFQNLSVIGFRILLLKVAGFNLLMTLRLWSSRAKRSGSGVKQTLNFDLLKLAGDVESNPGPSRGHMTEYKPTVRLATRDDVPRAVRTLAAAFADYPATRHTVDPDRHIERVTELQELFLTRVGLDIGKVWVADDGAAVAVWTTPESVEAGAVFAEIGPRMAELSGSRLAAQQQMEGLLAPHRPKEPAWFLATVGVSPDHQGKGLGSAVVLPGVEAAERAGVPAFLETSAPRNLPFYERLGFTVTADVEVPEGPRTWCMTRKPGA
B2: 22118 (protein)
chain: MALPVTALLLPLALLLHAARPEVQLVESGGGLVQPGGSLRLSCTFSGGTFSSYTMGWFRQAPGKEREFVAEVRWGGVTTYSNSLKDRFSISEDSVKNAVYLQMNSLKPEDTAVYYCAAVRQMYMTVVPDYWGQGTLVTVSSSGGGGSDIQMTQSPSSLSASVGDRVTITCKASDHINNWLAWYQQKPGKAPKLLIYGATTLETGVPSRFSGSGSGTDFTLTISSLQPEDFATYYCQQSWNTPWTFGQGTKVEIKRLEDLKNVFPPEVAVFEPSEAEISHTQKATLVCLATGFYPDHVELSWWVNGKEVHSGVCTDPQPLKEQPALNDSRYCLSSRLRVSATFWQNPRNHFRCQVQFYGLSENDEWTQDRAKPVTQIVSAEAWGRADCGFTSESYQQGVLSATILYEILLGKATLYAVLVSALVLMAMVKRKDSRGRAKRSGSGATNFSLLKQAGDVEENPGPTSMDWIWRILFLVGAATGAHSFEVQLVESGGGLVQPGGSLRLSCAASGYAFSSYWVNWVRQAPGKGLEWVAQIYPGDGDTNYNGKFKGRFTISRDNSKNTLYLQMNSLRAEDTAVYYCARSITTVVGCAMDYWGQGTLVTVSSTRIQNPDPAVYQLRDSKSSDKSVCLFTDFDSQTNVSQSKDSDVYITDKCVLDMRSMDFKSNSAVAWSNKSDFACANAFNNSIIPEDTFFPSPESSCDVKLVEKSFETDTNLNFQNLSVIGFRILLLKVAGFNLLMTLRLWSSRAKRSGSGVKQTLNFDLLKLAGDVESNPGPSRGHMTEYKPTVRLATRDDVPRAVRTLAAAFADYPATRHTVDPDRHIERVTELQELFLTRVGLDIGKVWVADDGAAVAVWTTPESVEAGAVFAEIGPRMAELSGSRLAAQQQMEGLLAPHRPKEPAWFLATVGVSPDHQGKGLGSAVVLPGVEAAERAGVPAFLETSAPRNLPFYERLGFTVTADVEVPEGPRTWCMTRKPGA
B3: 22005 (protein)
chain: MALPVTALLLPLALLLHAARPLEGKPIPNPLLGLDSTGSGEDLKNVFPPEVAVFEPSKAEIAHTQKATLVCLATGFYPDHVELSWWVNGKEVHSGVCTDPQPLKEQPALNDSRYCLSSRLRVSATFWQNPRNHFRCQVQFYGLSENDEWTQDRAKPVTQIVSAEAWGRADCGITSASYHQGVLSATILYEILLGKATLYAVLVSALVLMAMVKRKDSRGRAKRSGSGATNFSLLKQAGDVEENPGPTSTMALPVTALLLPLALLLHAARPEVQLVESGGGLVQPGGSLRLSCAASGFNIKDTCIGWVRRAPGKEEELVAKICKYSGHTRYADSVKGRFTISADTSKNTAYLQMNSLRAEDTAVYYCAAVSVRDGHYNYWGQGTTVTVSSTREQKLISEEDGSGIQNPDPAVYQLRDSKSSDKSVCLFTDFDSQTNVSQSKDSDVYITDKCVLDMRSMDFKSNSAVAWSNKSDFACANAFNNSIIPEDTFFPSSDVPCDVKLVEKSFETDTNLNFQNLSVIGFRILLLKVAGFNLLMTLRLWSSRAKRSGSGVKQTLNFDLLKLAGDVESNPGPSRGHMTEYKPTVRLATRDDVPRAVRTLAAAFADYPATRHTVDPDRHIERVTELQELFLTRVGLDIGKVWVADDGAAVAVWTTPESVEAGAVFAEIGPRMAELSGSRLAAQQQMEGLLAPHRPKEPAWFLATVGVSPDHQGKGLGSAVVLPGVEAAERAGVPAFLETSAPRNLPFYERLGFTVTADVEVPEGPRTWCMTRKPGA
B4: 22004 (protein)
chain: MALPVTALLLPLALLLHAARPLEGKPIPNPLLGLDSTGSGEDLKNVFPPEVAVFEPSKAEIAHTQKATLVCLATGFYPDHVELSWWVNGKEVHSGVCTDPQPLKEQPALNDSRYCLSSRLRVSATFWQNPRNHFRCQVQFYGLSENDEWTQDRAKPVTQIVSAEAWGRADCGITSASYHQGVLSATILYEILLGKATLYAVLVSALVLMAMVKRKDSRGRAKRSGSGATNFSLLKQAGDVEENPGPTSTMALPVTALLLPLALLLHAARPQLQLQESGPGLVKPSETLSLTCTVSGDSISSGDYYWGWIRQPPGKGLEWIGHIYYSGVTYYNPSLKSRVTISVDTSRNQFSLKLSSVTAADTAVYYCTREDSSNWRSRGQGTLVTVSSLESGGGGSFEQVQLVESGGGLVQPGGSLRLSCAASGFTFTNHAMSWVRQAPGKGLELVSSISGNGRTTYYADSVKGRFTISRDISKNTLDLQMNSLRAEDTAVYYCAKDGGETLVDSRGQGTLVTVSSTREQKLISEEDGSGIQNPDPAVYQLRDSKSSDKSVCLFTDFDSQTNVSQSKDSDVYITDKCVLDMRSMDFKSNSAVAWSNKSDFACANAFNNSIIPEDTFFPSSDVPCDVKLVEKSFETDTNLNFQNLSVIGFRILLLKVAGFNLLMTLRLWSSRAKRSGSGVKQTLNFDLLKLAGDVESNPGPSRGHMTEYKPTVRLATRDDVPRAVRTLAAAFADYPATRHTVDPDRHIERVTELQELFLTRVGLDIGKVWVADDGAAVAVWTTPESVEAGAVFAEIGPRMAELSGSRLAAQQQMEGLLAPHRPKEPAWFLATVGVSPDHQGKGLGSAVVLPGVEAAERAGVPAFLETSAPRNLPFYERLGFTVTADVEVPEGPRTWCMTRKPGA

Key:
Assay type in all cases: cell-based
[1] = tested on: DAUDI; experiment: JNG assay, co-culture with DAUDI cells
Protocol: Cellular supernatant is collected and assayed for the induction of cytokines (e.g., IL2).
JNG (Jurkat cells expressing EGFP under an NFAT promoter) were infected with lentiviral vectors encoding different single chain and multi-chain SARs by spinfection in the presence of 8 µg/ml of Polybrene® (Sigma, Catalog no. H9268). The Jurkat-NFAT-GFP cells are engineered in such a way that the IL-2 promoter, which carries NFAT binding sites, is cloned upstream of the GFP gene. These cells have been used to study signaling via TCR and CAR. The different SARs were stably expressed in Jurkat NFAT-GFP cells by lentiviral mediated gene transfer, followed by selection with puromycin or blasticidin. No drug selection was used in case the construct lacked an antibiotic resistance gene. The SAR-expressing Jurkat-NFAT-GFP cells were cocultured with the target cells at E:T ratio of approximately 1:2 for approximately 4 hours to 18 hours. When the interaction between SIRs and their target antigen results in activation of the NFAT pathway, GFP expression is induced. […] GFP expression was monitored by FACS analysis. The Jurkat-NFAT-GFP (parental) cells were used as control. The structure of different constructs can be determined based on their names. […] The sequence of the other constructs in the table can be similarly determined from their names and by referring to the different Tables of this disclosure that provide the names and SEQ ID NO of the different modules. Alternatively, the composition and modular architecture of the different SAR constructs can be determined from their sequences by bioinformatics tools, including using nucleic acid and amino acids homology searches. A SAR is considered positive in the assay in case the SAR expressing Jurkat-NFAT-GFP cells show greater % GFP positive cells when cultured with the target cell line as compared to parental Jurkat-NFAT-GFP cells. […] In general, the number +/-, +, 2+, 3+, 4+, 5+ refer to approximately 5%, 10%, 20%, 30%, 40% and 50% GFP positive cells. […]

[2] = tested on: L363 cells; experiment: JNG assay, co-culture with L363 cells; conditions: co-culture with L363
In short: (§1)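 Jurkat NFAT-GFP (JNG) cells stably transduced with SARs by lentivirus, with drug selection where the construct carried a resistance gene, then co-cultured with target cells at E:T ~1:2 for ~4–18 h. % GFP-positive cells measured by FACS against parental JNG; +/- to 5+ correspond to ~5–50% GFP-positive.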

[3] = tested on: Nalm6 cells; experiment: JNG assay, co-culture with Nalm6 cells; conditions: co-culture with Nalm6
In short: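 Values are semi-quantitative grades of GFP induction, each step approximating 10% more GFP+ cells (5+ ≈50%) above parental reporter cells, measured by FACS after SAR-transduced JNG cells were cultured with targets at ~1:2 E:T for ~4–18 h.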

[4] = tested on: RAJI cells; experiment: JNG assay, co-culture with RAJI cells; conditions: JNG cells expressing construct, co-culture with Raji
In short: as §1

[5] = tested on: RAJI-CD19-KO cells; experiment: JNG assay, co-culture with RAJI-CD19-KO cells; conditions: co-culture with Raji-CD19-KO
In short: as §1

[6] = tested on: RS;411; experiment: JNG assay, co-culture with RS;411 cells; conditions: co-culture with RS411
In short: as §1

[7] = tested on: LoVo; experiment: JNG NFAT-GFP assay, co-culture with LoVo cells

Molecule	NFAT-GFP ASSAY: Daudi [1]	NFAT-GFP ASSAY: L363 [2]	NFAT-GFP ASSAY: Nalm6 [3]	NFAT-GFP ASSAY: Raji [4]	NFAT-GFP ASSAY: Raji-CD19-KO [5]	NFAT-GFP ASSAY: RS411 [6]	NFAT-GFP ASSAY: LoVo [7]
B1	+/- (refer to approximately 5%, 10%, 20%, 30%, 40% and 50% GFP positive cells)	+ (refer to approximately 5%, 10%, 20%, 30%, 40% and 50% GFP positive cells)	+/- (refer to approximately 5%, 10%, 20%, 30%, 40% and 50% GFP positive cells)	+ (refer to approximately 5%, 10%, 20%, 30%, 40% and 50% GFP positive cells)	–	–	–
B2	3+ (refer to approximately 5%, 10%, 20%, 30%, 40% and 50% GFP positive cells)	–	3+ (refer to approximately 5%, 10%, 20%, 30%, 40% and 50% GFP positive cells)	3+ (refer to approximately 5%, 10%, 20%, 30%, 40% and 50% GFP positive cells)	2+ (refer to approximately 5%, 10%, 20%, 30%, 40% and 50% GFP positive cells)	3+ (refer to approximately 5%, 10%, 20%, 30%, 40% and 50% GFP positive cells)	–
B3	–	–	–	–	–	–	+/- (refer to approximately 5%, 10%, 20%, 30%, 40% and 50% GFP positive cells)
B4	+/- (refer to approximately 5%, 10%, 20%, 30%, 40% and 50% GFP positive cells)	+ (refer to approximately 5%, 10%, 20%, 30%, 40% and 50% GFP positive cells)	+/- (refer to approximately 5%, 10%, 20%, 30%, 40% and 50% GFP positive cells)	+ (refer to approximately 5%, 10%, 20%, 30%, 40% and 50% GFP positive cells)	–	–	–
